These results are taken from patent US7228238B2, “Algorithmic design of peptides for binding and/or modulation of the functions of receptors and/or other proteins” (Cielo Institute, Inc., priority 2000, dated 2007).

Assay [1] has as its target T1, human long isoform D2DA receptor (Homo sapiens, UniProt P14416). As to the kind of experiment: external acidification rate (EAR) by microphysiometry, response to dopamine, D2DA receptor-transfected CHO cell system. To be noted: peptide 1 μM; for MODULATORY EFFECT CHO: significance class of effect on EAR response to dopamine ≈1 μM; for MODULATORY EFFECT CHO / DIRECT EFFECT CHO: D2DA-transfected CHO cells; for DIRECT EFFECT CHO: significance class of effect on EAR.
Experimental: (§2) Both cell systems were stably transfected with human long isoform D2DA receptor cDNA, which had been isolated from a human striatal cDNA library, sequenced and subcloned into the expression vector pRC/RSV (Invitrogen). […] Both systems were grown to confluence in DMEM containing 10% FBS. The cells were serum-starved 18–24 hours prior to use, and then assayed for EAR using a microphysiometer (Cytosensor; Molecular Devices, Sunnyvale, Calif.) in low buffering DMEM with 0.1% culture grade BSA.
(§3) The determination of EAR by microphysiometry involves a proton-sensitive silicon semiconductor photocurrent-driven sensor which measures changes in EAR resulting from effector-evoked alterations in cellular glycolytic and respiratory energy metabolism and/or alterations in sodium-hydrogen exchanges across cellular membranes. Protonic H^+, generated by such energy metabolism or exchanges, neutralizes the charge on the surface of the semiconductor, reducing the photocurrent produced at a rate linearly related to H^+production.
(§4) The microphysiometer monitors pH in flow-through chambers containing the receptor-transfected cells. Generally, if the cells lines used are adherent cell lines, the cells are seeded into “capsule cups”. If the cell lines are non-adherent cell lines, then the cells are immobilized in a fibrin matrix. For all microphysiometer runs, modified low buffering DMEM containing 0.1% BSA is pumped across the cells at a rate of approximately 100 μL/min, during which time the pH of the microenvironment surrounding the sensor surface is maintained at a relatively constant value. The measurement of the acid output rate of the cells, termed the acidification rate, is made when the fluid flow is periodically halted to allow buildup of acidic metabolites in the chamber, resulting in an alteration in the pH of the fluid. The pH is measured in millivolts, and converted to milli-pH units. The changes in pH are expressed as changes in milli-pH units per minute following the linear, time-dependent buildup of H^+during intermittent periods of pump arrest followed by washout. […] Ligand induced, receptor-mediated increases in cell metabolic and Na^+—H^+membrane regulatory activity is seen as an increase in the acidification rate.
(§5) Small Kolmogorov-Smirnov distances supported the assumption of normality in all of the data sets, so within chamber-paired, one-tailed t-tests with a significance criterion of ρ=0.05 were used.

The target of assay [2] is T1, human long isoform D2DA receptor. As to the kind of experiment: external acidification rate (EAR) by microphysiometry, response to dopamine, D2DA receptor-transfected mouse LtK cell system. The note with it: for MODULATORY EFFECT LtK: significance class of effect on EAR response to dopamine ≈1 μM; for MODULATORY EFFECT LtK / DIRECT EFFECT LtK / influence on dopamine-induced increment in total milli-pH units (EAR response to dopamine) / ρ of one-tailed t-test paired within chamber, peptide influence on EAR response to dopamine: peptide 1 μM; for MODULATORY EFFECT LtK / DIRECT EFFECT LtK: D2DA-transfected LtK cells; for DIRECT EFFECT LtK: significance class of effect on EAR; for influence on dopamine-induced increment in total milli-pH units (EAR response to dopamine) / ρ of one-tailed t-test paired within chamber, peptide influence on EAR response to dopamine: LtK system, dopamine ≈1 μM.
Experimental: as §2, §3, §4, §5

The target in assay [3] is T2, human muscarinic M1 receptor (Homo sapiens, UniProt P11229).
T2 construct: expressed in transfected cells; host or cells: CHO-K1 cells; expression vector pcDNA3; calcium phosphate method; geneticin selection
T2 sequence (P11229 1-460): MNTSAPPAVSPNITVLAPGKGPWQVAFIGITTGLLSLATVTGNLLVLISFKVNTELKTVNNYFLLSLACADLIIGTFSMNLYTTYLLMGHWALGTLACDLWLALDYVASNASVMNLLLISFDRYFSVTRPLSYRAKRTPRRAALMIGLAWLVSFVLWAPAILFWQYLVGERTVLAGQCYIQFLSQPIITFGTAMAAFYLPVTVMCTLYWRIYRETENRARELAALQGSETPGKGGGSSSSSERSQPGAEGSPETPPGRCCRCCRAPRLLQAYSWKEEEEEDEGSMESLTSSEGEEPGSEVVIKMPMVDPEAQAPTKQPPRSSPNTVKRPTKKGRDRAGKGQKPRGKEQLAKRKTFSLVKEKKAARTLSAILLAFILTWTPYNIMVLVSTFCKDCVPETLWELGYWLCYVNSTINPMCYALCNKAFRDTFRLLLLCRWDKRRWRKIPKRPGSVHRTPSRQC
As to the kind of experiment: EAR test system, response to carbachol, M1 receptor-transfected CHO-K1 cells. Format: cell-based. The note with it: for MODULATORY EFFECT: significance class of effect on EAR due to carbachol. The method, then: (§1) Peptides derived from receptor protein systems other than the D2DA receptor were also tested for their effects on their respective receptors. For the human muscarinic M1 receptor, CHO cells were transfected with the muscarinic M1 receptor cDNA derived from a human cDNA library essentially as described by Buckley et al. (Mol. Pharmacol. 1989 35:469–476). Briefly, the coding region of the M1 receptor was obtained from a human cDNA library and cloned into the expression vector pcDNA3 (Invitrogen, San Diego, Calif.). CHO-K1 cells were transformed with the construct, using the calcium phosphate method. Stably expressing transformants were obtained in the presence of 250 μg/ml geneticin. Transformed cell lines expressing the human NGF receptor also were obtained. The effects of the peptides derived by the methods of the present invention on the activities of the corresponding receptors in the transformed cell lines were evaluated in the same manner as described above for the D2DA-targeted algorithmically derived peptides, using the EAR test system.

For assay [4], the system named is human NGF receptor. As to the kind of experiment: EAR test system, transformed cell line expressing the NGF receptor, response to NGF. Format: cell-based. To be noted: for MODULATORY EFFECT: significance class of change in EAR response to NGF; for MODULATORY EFFECT / DIRECT EFFECT: NGF receptor cell line; for DIRECT EFFECT: significance class of change in EAR; for effect on EAR response to NGF: NGF receptor inhibition assay, PC-12 cells. The method, then:
as §1
The hydrophobic wavelength of a peptide containing L-amino acids is the same as a peptide containing D-amino acids in which the sequence is inverted. Such “retro-inverso” peptides have been previously described (Chorev, M. and Goodman, M. (1995) Trends Biotechnol. 13:438–445), but their use as mode-matched binding peptides has never before been contemplated. A retro-inverso peptide containing D-amino acids and having the sequence […] was synthesized (SEQ ID NO:97). This sequence of this peptide is inverted from that of peptide of SEQ ID NO:27, used in the NGF receptor inhibition assay. […] The peptide of SEQ ID NO:97 was tested in the same assay as the L-amino acid, forward sequence peptide of SEQ ID NO: 27.

Setting [5] is: CHO cell system, dopamine ≈1 μM.

T1 sequence (P14416 whole entry, canonical isoform): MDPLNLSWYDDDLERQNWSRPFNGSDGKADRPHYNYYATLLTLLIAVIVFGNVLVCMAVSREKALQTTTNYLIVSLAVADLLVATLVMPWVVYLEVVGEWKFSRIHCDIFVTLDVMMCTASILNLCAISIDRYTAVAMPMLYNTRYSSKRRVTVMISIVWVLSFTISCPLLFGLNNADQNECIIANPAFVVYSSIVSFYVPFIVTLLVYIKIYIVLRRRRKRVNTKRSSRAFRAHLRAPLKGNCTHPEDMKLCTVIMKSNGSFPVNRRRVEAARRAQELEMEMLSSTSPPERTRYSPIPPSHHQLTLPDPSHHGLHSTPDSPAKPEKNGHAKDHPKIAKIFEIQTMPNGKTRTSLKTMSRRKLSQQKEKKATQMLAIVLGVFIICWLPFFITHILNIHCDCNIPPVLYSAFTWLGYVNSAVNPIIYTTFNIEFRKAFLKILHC

In the case of 1 (SHQRWEYKGVNCIVY) [compound 1], in assay [1], the “MODULATORY EFFECT CHO” value is given as “*** (***ρ ≦ 0.001)” and the “DIRECT EFFECT CHO” value is listed as “*** (***ρ ≦ 0.001)”. In assay [2], the “MODULATORY EFFECT LtK” value is on record as “*** (***ρ ≦ 0.001)” and the “DIRECT EFFECT LtK” value is listed as “*** (***ρ ≦ 0.001)”.
As to 3 (ERNRKPYRPKNKYLL) [compound 3], in assay [2], the “MODULATORY EFFECT LtK” value was “*** (***ρ ≦ 0.001)”.
For the substance 4 (ERNKLNYKNKNKYIL) [compound 4], in assay [2], the “MODULATORY EFFECT LtK” value was “*** (***ρ ≦ 0.001)”.
Consider 5 (SHTAYHWMSCGKIVI) [compound 5], for which the “MODULATORY EFFECT CHO” value in assay [1] was “*** (***ρ ≦ 0.001)”. Moreover, the “MODULATORY EFFECT LtK” value in assay [2] is listed as “* (*0.01 < ρ ≦ 0.05)”.
As for 7 (SHQAWRYKNVNCYVI) [compound 7], the “MODULATORY EFFECT LtK” value in assay [2] is reported as “*** (***ρ ≦ 0.001)”.
As to 8 (GETAFRYVNCNVYVYI) [compound 8], the “DIRECT EFFECT CHO” value in assay [1] was “** (**0.001 < ρ ≦ 0.01)”. In addition, in assay [2], the “DIRECT EFFECT LtK” value is “*** (***ρ ≦ 0.001)”.
Regarding 13 (FSFQCKSINYEALGY) [compound 13], the “DIRECT EFFECT” value in assay [3] (significance class of effect on EAR) is listed as “** (** 0.001 < ρ ≦ 0.01)”. Further, the “MODULATORY EFFECT” value in assay [3] is “** (** 0.001 < ρ ≦ 0.01)”.
For the substance 14 (FSFGVKSWQYHALGY) [compound 14], the “MODULATORY EFFECT” value in assay [3] is reported as “* (* 0.01 < ρ ≦ 0.05)”.
Still for that read-out and setting: the result for 15 (ITFTVKGLTLAAFTY) [compound 15] reads “*** (*** ρ ≦ 0.001)”; that for 16 (ISFNKCTWSFERYSL) [compound 16], “* (* 0.01 < ρ ≦ 0.05)”; that for 17 (FNLSVKQWNYRAYNL) [compound 17], “** (** 0.001 < ρ ≦ 0.01)”.
With 23 (DLCRSARSDIEVTEY) [compound 23], in assay [4], the “MODULATORY EFFECT” value is recorded as “*** (*** ρ ≦ 0.001)” and the “DIRECT EFFECT” value was “** (** 0.001 < ρ ≦ 0.01)”.
24 (RFVASAATEIEVNRL) [compound 24]: the “MODULATORY EFFECT” value in assay [4] is listed as “** (** 0.001 < ρ ≦ 0.01)”.
On to 25 (HYCASADPRIHKNAL) [compound 25], for which the “MODULATORY EFFECT” value in assay [4] is given as “*** (*** ρ ≦ 0.001)”.
On the same count and under the same terms, the same measure for 26 (DFVDGAAGRLHKGEY) [compound 26]: “** (** 0.001 < ρ ≦ 0.01)”.
27 (DIKATEATDIEKGHL) [compound 27]: the “MODULATORY EFFECT” value in assay [4] is listed as “*** (*** ρ ≦ 0.001)”.
Turning to 28 (RFVDNDATDIEKGRI) [compound 28], in assay [4], the “MODULATORY EFFECT” value was “*** (*** ρ ≦ 0.001)” and the “DIRECT EFFECT” value is “* (* 0.01 < ρ ≦ 0.05)”.
Turning to 29 (RFVRGDRNHFDCGEL) [compound 29], in assay [4], the “MODULATORY EFFECT” value is “*** (*** ρ ≦ 0.001)” and the “DIRECT EFFECT” value was “* (* 0.01 < ρ ≦ 0.05)”.
The like results for 30 (HFVRNERTHFDVSAL) [compound 30] were, in that order, “* (* 0.01 < ρ ≦ 0.05)” and “* (* 0.01 < ρ ≦ 0.05)”.
As to ERNRKPLRPKNKYLI [E . . . PL], the “influence on dopamine-induced increment in total milli-pH units (EAR response to dopamine)” value (“influence on dopamine-induced increment” below) in assay [2] is reported as “statistically significant activation”.
Regarding ERNRKPYRPKNKYLL [E . . . PY], in assay [2], the “influence on dopamine-induced increment” value is recorded as “statistically significant activation”.
In the case of H-DIKATEATDIEKGHL-OH [SEQ ID NO:27], the “effect on EAR response to NGF” value in assay [4] is listed as “significantly down-regulated”.
With H-SHQRWEYKGVNCIVY-OH [SEQ ID NO:1], in assay [1] (setting [5]), the “influence on dopamine-induced increment” value is “significantly potentiated” and the “ρ of one-tailed t-test paired within chamber, peptide influence on EAR response to dopamine” value is on record as under 0.0001. For the same substance, the “EAR dose response curves” value in assay [2] (LtK cells, dopamine 10^−8.5M to 10^−5.5M, peptide 10 nM to 3 μM) was “asymptotic sigmoidal kinetics, suggestive of positive cooperativity”. In assay [2], the “influence on dopamine-induced increment” value is on record as “significantly potentiated” and the “ρ of one-tailed t-test paired within chamber, peptide influence on EAR response to dopamine” value is given as 0.0009.
With “H-THQAFHYCNKQCLVI-OH (cysteine pairing not given here) [SEQ ID NO:2]”, in assay [1] (setting [5]), the “influence on dopamine-induced increment” value was “did not significantly potentiate”. In assay [2], the “influence on dopamine-induced increment” value is “did not significantly potentiate” and the “ρ of one-tailed t-test paired within chamber, peptide influence on EAR response to dopamine” value was over 0.05.
In the case of LHGKEIDTAETAKID [SEQ ID NO:97], in assay [4], the “effect on EAR response to NGF” value is “also down-regulated the EAR response of PC-12 cells to NGF, to an extent comparable”.
